# Assay results as given in patent US11358986B2, “IL-2RBETA binding compounds” (MEDIKINE, INC., priority 2018, dated 2022).
# Ends that are not written are not given here.
# Experiments:
# [1] = target: T1, extracellular domain (ECD) of IL-2Rβ (Homo sapiens, UniProt P14784); experiment: Competitive binding of synthetic test peptides against phage clones on immobilized IL-2Rβ ECD; details: for Competition with phage clone peptide SEQ ID NO: 58: phage clone of IL-2β family 1; for Competition with phage clone peptide SEQ ID NO: 170: phage clone of IL-2β family 2A; for Competition with phage clone peptide SEQ ID NO: 83: phage clone of IL-2β family 2B; for Competition with phage clone peptide SEQ ID NO: 1034 or 1084: phage clone of IL-2β family 2C; for Competition with phage clone peptide SEQ ID NO: 1044: phage clone of IL-2β family 4
# T1 construct: Fc; purchased ACRObiosystems, Inc. ILB-H5253
# T1 sequence (P14784 27-239): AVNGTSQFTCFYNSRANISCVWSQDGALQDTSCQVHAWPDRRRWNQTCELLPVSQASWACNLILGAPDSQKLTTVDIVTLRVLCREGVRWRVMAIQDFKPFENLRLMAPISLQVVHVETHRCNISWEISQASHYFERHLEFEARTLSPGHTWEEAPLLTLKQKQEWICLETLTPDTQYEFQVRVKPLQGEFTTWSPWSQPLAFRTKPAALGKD
# Experimental: (§1) Competitive binding assays were performed to characterize the IL-2R binding sites for certain IL-2Rβ and to IL-2Rγc ligands.
# Representative phage clones displaying peptides from IL-2Rβ ligand families were bound to the extracellular domain (ECD) of IL-2Rβ immobilized in microtiter wells. Phage binding was conducted in the presence and absence of synthetic test peptides to determine if phage peptides and test peptides competed for binding to the same sites on IL-2Rβ. Synthetic test peptides were selected to represent peptides from IL-2Rβ ligand families, as well positive and negative control peptides.
# (§2) Phage binding to the immobilized IL-2Rβ ECD was detected by staining with antibody against phage coat proteins (anti-phage Ab), staining with labeled secondary antibody against the anti-phage Ab, and scored by reading OD in the microtiter plate optical reader.
# (§3) The ELISA signal for each phage binding in the presence and absence of the test peptides was compared to determine which synthetic peptides competed with which phage peptides for binding to the IL-2Rβ subunit.
# IL-2Rγc subunit = target: T2, IL-2Rγc subunit (Homo sapiens, UniProt P31785); experiment: Competitive binding of synthetic test peptides against phage clones on IL-2Rγc; details: for Competition with phage clone peptide SEQ ID NO: 198: phage clone of IL-2Rγc family 1A; for Competition with phage clone peptide SEQ ID NO: 224: phage clone of IL-2Rγc family 1B; for Competition with phage clone peptide SEQ ID NO: 236: phage clone of IL-2Rγc family 2; for Competition with phage clone peptide SEQ ID NO: 248 or 1051: phage clone of IL-2Rγc family 3; for Competition with phage clone peptide SEQ ID NO: 266: phage clone of IL-2Rγc family 4; for Competition with phage clone peptide SEQ ID NO: 948: phage clone of IL-2Rγc family 5
# T2 construct: Fc; purchased ACRObiosystems, Inc. ILG-H5256
# T2 sequence (P31785 23-254): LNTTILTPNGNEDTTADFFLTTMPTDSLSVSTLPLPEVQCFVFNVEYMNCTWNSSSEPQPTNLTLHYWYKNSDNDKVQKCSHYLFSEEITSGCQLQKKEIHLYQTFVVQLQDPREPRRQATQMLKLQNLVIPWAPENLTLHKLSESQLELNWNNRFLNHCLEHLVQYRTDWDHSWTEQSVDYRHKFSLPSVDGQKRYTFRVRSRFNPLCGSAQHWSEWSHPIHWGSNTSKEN
# Experimental: as §1, §2, §3
# A similar study was performed to evaluate the binding of IL-2Rγc ligands.
# NK-92 cells = experiment: STAT5 phosphorylation in NK-92 cells; assay type: cell-based, human; details: Western Blot, 0.1, 1 and 10 μM, 30 min
# Experimental: NK-92 cells were seeded in a 24-well plate at 4×10^5 cells, in 1 mL starvation medium (SM), and incubated overnight at 37° C., 5% CO2. The starvation medium contained RPMI 1640+20% FBS+2 mM L-glutamine+1 mM NaPyr+10 mM HEPES+0.1 mM BME (no rhIL-2 supplement).
# Treatment mixtures were of 1 pg/mL Anti-hIL-2 neutralizing antibody (0.2 mg/mL stock) or goat IgG control (1 mg/mL stock) were prepared.
# The treatment mixtures and the antibody mix were added to the cells for 30 min at 37° C., 5% CO2. Each sample was then transferred to a 1.5 mL microfuge tube and spun down at 1,500 RPM for 5 minutes. The cells were washed in 1 mL PBS and centrifuged again.
# A phosphatase and protease inhibitor cocktail (Thermo #78442) were added to mPER buffer at a 1:100 dilution. After the cells were pelleted, 50 μL of mPER buffer was added to each sample and pipetted repeatedly to homogenize.
# The lysates were centrifuged at 14,000 RPM for 5 min at RT. The supernatants were transferred to clean tubes and stored frozen at −80° C.
# The treatment reagents included Anti-STAT5 Antibody (rabbit), Cell Signaling No. 94205S; Anti-pSTAT5 Antibody (rabbit), Cell Signaling No. 4322S; and Goat anti-rabbit IgG-HRP, Jackson Immunoresearch No. 111-035-144.
Competition with phage clone peptide SEQ ID NO: 58 [1],Competition with phage clone peptide SEQ ID NO: 170 [1],Competition with phage clone peptide SEQ ID NO: 83 [1],Competition with phage clone peptide SEQ ID NO: 1034 or 1084 [1],Competition with phage clone peptide SEQ ID NO: 1044 [1],Competition with phage clone peptide SEQ ID NO: 198 (IL-2Rγc subunit),Competition with phage clone peptide SEQ ID NO: 224 (IL-2Rγc subunit),Competition with phage clone peptide SEQ ID NO: 236 (IL-2Rγc subunit),Competition with phage clone peptide SEQ ID NO: 248 or 1051 (IL-2Rγc subunit),Competition with phage clone peptide SEQ ID NO: 266 (IL-2Rγc subunit),Competition with phage clone peptide SEQ ID NO: 948 (IL-2Rγc subunit),Substance,other results
,,,,,,,,,,,58 (YDCRIAQVGELCDL) [compound 58],competition for binding to the binding site of the IL-2Rγc subunit with the group of IL-2Rγc ligands (IL-2Rγc subunit): does not compete
+ (Peptide competes with phage binding.),+ (Peptide competes with phage binding.),+ (Peptide competes with phage binding.),+ (Peptide competes with phage binding.),−,,,,,,,169 (NMCLVGDYWPSCQI) [Peptide 169],
−,−,−,−,−,+ (Peptide competes with phage binding.),+ (Peptide competes with phage binding.),+ (Peptide competes with phage binding.),+ (Peptide competes with phage binding.),+ (Peptide competes with phage binding.),−,224 (DCSMWEGVELCW) [Peptide 224],
,,,,,,,,,,,224 (DCSMWEGVELCW) [compound 224],competition for binding to the binding site of the IL-2Rβ subunit with the group of IL-2Rβ ligands [1]: does not compete
,,,,,+ (Peptide competes with phage binding.),+ (Peptide competes with phage binding.),+ (Peptide competes with phage binding.),+ (Peptide competes with phage binding.),+ (Peptide competes with phage binding.),−,236 (MCWLEWGEWVGSCL) [Peptide 236],
,,,,,−^2,−,−,−,−,+ (Peptide competes with phage binding.),948 (SLLKCYNASTCASVF) [Peptide 948],
,,,,,,,,,,,948 (SLLKCYNASTCASVF) [compound 948],competition for binding to the binding site of the IL-2Rγc subunit with the group of IL-2Rγc ligands (IL-2Rγc subunit): does not compete
,,,,,,,,,,,1041 (WESWNVGDLVNLVNW) [compound 1041],competition for binding to the binding site of the IL-2Rβ subunit with the group of IL-2Rβ ligands [1]: does not compete
+ (Peptide competes with phage binding.),+ (Peptide competes with phage binding.),+ (Peptide competes with phage binding.),+ (Peptide competes with phage binding.),−,,,,,,,1042 (CYEVGDYCQSPL) [Peptide 1042],
−^2,−,−,−,+ (Peptide competes with phage binding.),,,,,,,1044 (RSCYYKRPRLWCSE) [Peptide 1044],
,,,,,,,,,,,1044 (RSCYYKRPRLWCSE) [compound 1044],competition for binding to the binding site of the IL-2Rβ subunit with the group of IL-2Rβ ligands [1]: does not compete
,,,,,,,,,,,Compound A: heterodimer of SEQ. ID. NO: 58 and SEQ ID. NO. 224 (chain 1 YDCRIAQVGELCDL; chain 2 DCSMWEGVELCW; cysteine pairing not given here; also: heterodimer),STAT5 phosphorylation (pSTAT5) (NK-92 cells): induced
,,,,,,,,,,,Compound B: heterodimer of SEQ. ID. NO: 58 and SEQ ID. NO. 237 (chain 1 YDCRIAQVGELCDL; chain 2 LCFSEFLGEWVDCN; cysteine pairing not given here; also: heterodimer),STAT5 phosphorylation (pSTAT5) (NK-92 cells): induced
,,,,,+ (Peptide competes with phage binding.),+ (Peptide competes with phage binding.),+ (Peptide competes with phage binding.),+ (Peptide competes with phage binding.),+ (Peptide competes with phage binding.),−,"SEQ ID NO: 248 or 1051: IL-2Rγc family 3 test peptide, SEQ ID NO: 248 or its modified form SEQ ID NO: 1051 (DLSDLSTFWLSQ; not fully specified)",

Substance,Competition with phage clone peptide SEQ ID NO: 58 [1],Competition with phage clone peptide SEQ ID NO: 170 [1],Competition with phage clone peptide SEQ ID NO: 83 [1],Competition with phage clone peptide SEQ ID NO: 1034 or 1084 [1],Competition with phage clone peptide SEQ ID NO: 1044 [1],Competition with phage clone peptide SEQ ID NO: 198 (IL-2Rγc subunit),Competition with phage clone peptide SEQ ID NO: 224 (IL-2Rγc subunit),Competition with phage clone peptide SEQ ID NO: 236 (IL-2Rγc subunit),Competition with phage clone peptide SEQ ID NO: 248 or 1051 (IL-2Rγc subunit),Competition with phage clone peptide SEQ ID NO: 266 (IL-2Rγc subunit),Competition with phage clone peptide SEQ ID NO: 948 (IL-2Rγc subunit),other results
58 (YDCRIAQVGELCDL) [Peptide 58],+^1 (Peptide competes with phage binding.),+ (Peptide competes with phage binding.),+ (Peptide competes with phage binding.),+ (Peptide competes with phage binding.),−,−,−,−,−,−,−,
202 (RTCTEWENVVLCWV) [Peptide 202],,,,,,+^1 (Peptide competes with phage binding.),+ (Peptide competes with phage binding.),+ (Peptide competes with phage binding.),+ (Peptide competes with phage binding.),+ (Peptide competes with phage binding.),−,
